B1: F1*; the commonest letter at each place (parent)
chain: GAGACCGCAACTGAAAAGTTGTTATCACTTGTCGTAAGACACTTTGGATGGGTTGAAGTTCTGCACGTAGAAGCAAAAGGC

Variants of: B1
Experiment: fraction ligated after 30 min (ligated reads / total reads); higher = more ligase activity
Settings: with F1*sub RNA substrate (template-directed ligation), 42 °C
In short: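 Oligo-pool templates underwent PCR amplification, T7 transcription and gel purification to yield ribozyme variants. Gel-separated ligated and unligated bands were converted to complementary DNA with barcoded primers and sequenced on a MiSeq, keeping core bases of quality ≥20. The ratio of ligated reads to total reads gave the fraction ligated for every variant.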

Row | Variant | fraction ligated
1 | A48T A56C | 0.0454
2 | G31C A41G | 0.779
3 | A39T C40G | 0.808
4 | T49C G55T | 0.091
5 | T43A A57C | 0.792
6 | C26T T43C | 0.788
7 | C40T | 0.833
8 | G34A T49G | 0.819
9 | G38A A57T | 0.819
10 | C26G A57T | 0.312
11 | A27C A36C | 0.793
12 | G38A A41C | 0.782
13 | C40A G55C | 0.504
14 | A37G C40G | 0.829
15 | T44A G50C | 0.442
16 | A24T G55C | 0.107
17 | G55C A56C A57T | 0.0335
18 | G31C T32C | 0.796
19 | T49G A56G | 0.0888
20 | C26G A56T | 0.0342
21 | A41G T44G | 0.809
22 | G34A A37T | 0.84
23 | C26A A41T | 0.768
24 | G31T A39C | 0.769

Row | Variant | fraction ligated
25 | C33G T43A | 0.814
26 | T25G G55T | 0.132
27 | T23G A36C | 0.882
28 | C26A T35A | 0.803
29 | A36G A57G | 0.88
30 | C42G T49C | 0.727
31 | C42G T49A | 0.79
32 | A41G G50C | 0.119
33 | G31C T43G | 0.761
34 | C33G G50C | 0.114
35 | A39T C42T | 0.829
36 | C40A A56T | 0.812
37 | G50A G55C | 0.0427
38 | T32A T49G | 0.618
39 | T29G T32G | 0.832
40 | G31T T43G | 0.76
41 | A39T G46C | 0.64
42 | T30G C42A | 0.831
43 | G38C T45C | 0.0602
44 | A37T G47A | 0.806
45 | T23A G31T | 0.789
46 | A24G A39C | 0.504
47 | T30C G34A | 0.792
48 | A36G G38C | 0.846

Row | Variant | fraction ligated
49 | C33G G55T | 0.777
50 | A24T A57C | 0.386
51 | T32G G47T | 0.0926
52 | T30A T49A | 0.694
53 | T30A T49C | 0.467
54 | G38C T43C | 0.822
55 | C26A A56T | 0.14
56 | T32C T45C | 0.217
57 | A27C C33T | 0.795
58 | A41G T45C | 0.541
59 | T32G A56G | 0.799
60 | T25A A41C | 0.0344
61 | G31C A39T | 0.778
62 | A37G A56T | 0.819
63 | G31T C33G | 0.808
64 | A24C T30G | 0.57
65 | G55C A56G A57G | 0.0448
66 | G34A G38T | 0.838
67 | T45A G50C | 0.0158
68 | G31A A41T | 0.81
69 | G55A A56T | 0.8
70 | C26G A36T | 0.773
71 | T35G T44A | 0.843
72 | G46C | 0.804

Row | Variant | fraction ligated
73 | G31A A36C | 0.8
74 | T49A G55C | 0.129
75 | C26G T32C | 0.245
76 | C33G T35A | 0.872
77 | T32C A57G | 0.781
78 | A36G G47A | 0.764
79 | T23A G34T | 0.812
80 | T43A G47T | 0.643
81 | T45A G47A | 0.478
82 | A27C G31T | 0.789
83 | T43G G46C | 0.783
84 | G47A G50C | 0.386
85 | A56T A57C | 0.0772
86 | T25C C26A | 0.0548
87 | A37C T45G | 0.415
88 | A27G G46C | 0.795
89 | T32C G34T | 0.759
90 | C40A G46T | 0.792
91 | A27G T49A | 0.721
92 | T32A G55C | 0.562
93 | C28T G46C | 0.8
94 | A37C T43G | 0.806
95 | C28T A37T | 0.81
96 | C33A T49A | 0.725

Row | Variant | fraction ligated
97 | A37T G50A | 0.602
98 | A27C G55A | 0.805
99 | A39T T43G | 0.772
100 | A39T T43C | 0.795
101 | G34A A48G | 0.795
102 | A27G C28T | 0.813
103 | T29G G47A | 0.816
104 | G38T C42A | 0.842
105 | G31A A56T | 0.724
106 | G47T A48G | 0.183
107 | T49A A56G | 0.116
108 | G34C A39C | 0.806
109 | G31A A39T | 0.795
110 | G46A G55C | 0.224
111 | G31T A37T | 0.815
112 | T43G A56C | 0.713
113 | T23A G47A | 0.783
114 | G38T G55C | 0.781
115 | T30G A37C | 0.849
116 | A41T A48T | 0.345
117 | C42T T45A | 0.799
118 | T29C C40T | 0.818
119 | T32C C40T | 0.786
120 | C33A G38C | 0.832

Row | Variant | fraction ligated
121 | T32C A37G | 0.815
122 | C33G T44G | 0.808
123 | G34A T35C | 0.835
124 | T29G C33T | 0.808
125 | A27G G31C | 0.798
126 | A41C C42G | 0.826
127 | A24C C42T | 0.779
128 | T23A C28A | 0.787
129 | A36G T49G | 0.761
130 | G31T C40T | 0.829
131 | T25G T43C | 0.409
132 | C33T T45C | 0.815
133 | T43A A48T | 0.774
134 | T30G G31T | 0.853
135 | A37T G46C | 0.8
136 | A24G A48G | 0.762
137 | A24T G38T | 0.745
138 | C26T G38C | 0.81
139 | T29A G50T | 0.585
140 | T23C C33A | 0.786
141 | T35A C40G | 0.834
142 | T45A T49A | 0.0341
143 | G31T A57C | 0.789
144 | A36G T45G | 0.353

Row | Variant | fraction ligated
145 | G34T C42T | 0.848
146 | T44C T45A | 0.768
147 | A27G C42T | 0.817
148 | G38A T49A | 0.782
149 | T23C G31A | 0.619
150 | T23C T49A | 0.792
151 | A39C G55A | 0.821
152 | T25C A48T | 0.815
153 | T45C G55T | 0.134
154 | A27C C28T | 0.819
155 | A37G T43G | 0.814
156 | T43C T45C | 0.584
157 | T43C T45A | 0.574
158 | T23C A48C | 0.697
159 | A37T A41C | 0.785
160 | A36C A41C | 0.782
161 | A41C T44C | 0.769
162 | T49G G50C | 0.0713
163 | C33T A41T | 0.808
164 | C40T T45C | 0.77
165 | A39T G47T | 0.22
166 | T23C G34C | 0.774
167 | A37C T49C | 0.737

Reference: the supplement of paper PMC6755084
